± gives the uncertainty stated by the source.

The nature of this series: self-splicing fitness, log relative to wild type (ln ratio); higher = more splicing; Tetrahymena group I intron in knt gene, E. coli kanamycin selection, DiMSum; sequences stand for … in CUCUCU…GGAGGGAAAAGUUAUCAGGCAUGCACCUGGUAGCUAGUCUUUAAACCAAUAGAUUGCAUCGGUUUAAAAGGCAAGACCGUCAAAUUGCGGGAAAGGGGUCAACAGCCGUUCAGUACCAAGUCUCAGGGGAAACUUUGAGAUGGCCUUGCAAAGGGUAUGGUAAUAAGCUGACGGACAUGGUCCUAACCACGCAGCCAAGUCCUAAGUCAACAGAUCUUCUGUUGAUAUGGAUGCAGUUCACAGACUAAAUGUCGGUCGGGGAAGAUGUAUUCUUCUCAUAAGAUAUAGUCGGACCUCUCCUUAAUGGGAGCUAGCGGAUGAAGUGAUGCAACACUGGAGCCGCUGGGAACUAAUUUGUAUGCGAAAGUAUAUUGAUUAGUUUUGGAGUACUCGUGGUCG
Put shortly: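 Colonies from six replicate transformations of E. coli BL21(DE3) were pooled and amplicon-sequenced on an Illumina HiSeq 2500. The library placed an intron with all eight P1ex-region nucleotides randomised inside the knt kanamycin-resistance gene on pET-22b(+), and cells grew overnight at 37°C or 30°C on LB agar with or without 25 μg/mL kanamycin (plus 100 μg/mL carbenicillin, 50 μM IPTG, 0.2% rhamnose). Fitness is the DiMSum error-weighted combination of wild-type-normalised replicate fold changes, kanamycin versus none.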

CCUCAGCAAUAUUACGUUGG: the “self-splicing fitness (ln)” value (30 °C) was -3.17 ± 0.13 and the “self-splicing fitness (ln)” value (37 °C) was -3.24 ± 0.21.

Take CCUCAGCAAUAUUACGUUUG: the “self-splicing fitness (ln)” value is -1.46 ± 0.093 (30 °C) and -2.15 ± 0.14 (37 °C).

For the sequence CCUGAGCAAUAUUACGAAAG, the “self-splicing fitness (ln)” value by setting is: (30 °C) -2.39 ± 0.22; (37 °C) -2.08 ± 0.23.

Turning to CCUGAGCAAUAUUACGAAUG, the “self-splicing fitness (ln)” value is, setting by setting: (30 °C) -2.21 ± 0.18; (37 °C) -1.7 ± 0.19.

Turning to CCUGAGCAAUAUUACGAGAG, the “self-splicing fitness (ln)” value runs as follows: (30 °C) -3.7 ± 0.26; (37 °C) -0.438 ± 0.1.

As to CCUGAGCAAUAUUACGAGUU, the “self-splicing fitness (ln)” value (30 °C) was -3.99 ± 0.39.

Turning to CCUGAGCAAUAUUACGAUUA, under “37 °C”, the “self-splicing fitness (ln)” value is -2.35 ± 0.33.

For the sequence CCUGAGCAAUAUUACGCAUU, the “self-splicing fitness (ln)” value runs as follows: (30 °C) -4.02 ± 0.25; (37 °C) -1.86 ± 0.23.

With CCUGAGCAAUAUUACGCGCA, the “self-splicing fitness (ln)” value (30 °C) was -2.95 ± 0.34 and the “self-splicing fitness (ln)” value (37 °C) was -1.11 ± 0.37.

For CCUGAGCAAUAUUACGCGCG, the “self-splicing fitness (ln)” value (30 °C) was -3.05 ± 0.21 and the “self-splicing fitness (ln)” value (37 °C) was -3.29 ± 0.26.

In the case of CCUGAGCAAUAUUACGCGGA, the “self-splicing fitness (ln)” value by setting is: (30 °C) -2.9 ± 0.25; (37 °C) -1.17 ± 0.18.

Regarding CCUGAGCAAUAUUACGCUGA, the “self-splicing fitness (ln)” value (30 °C) was -2.59 ± 0.31 and the “self-splicing fitness (ln)” value (37 °C) was -2.56 ± 0.35.

Consider CCUGAGCAAUAUUACGGAUA, for which the “self-splicing fitness (ln)” value (30 °C) was -3.44 ± 0.32 and the “self-splicing fitness (ln)” value (37 °C) was -1.92 ± 0.23.

Take CCUGAGCAAUAUUACGGCUG: the “self-splicing fitness (ln)” value runs as follows: (30 °C) -4.49 ± 0.31; (37 °C) -1.76 ± 0.2.

For the sequence CCUGAGCAAUAUUACGGCUU, the “self-splicing fitness (ln)” value is, setting by setting: (30 °C) -3.73 ± 0.29; (37 °C) -3.02 ± 0.27.

Take CCUGAGCAAUAUUACGGUAC: under “30 °C”, the “self-splicing fitness (ln)” value is -4.34 ± 0.34.

Consider CCUGAGCAAUAUUACGGUAU, for which the “self-splicing fitness (ln)” value runs as follows: (30 °C) -3.02 ± 0.16; (37 °C) -2.61 ± 0.21.

Regarding CCUGAGCAAUAUUACGGUCG, the “self-splicing fitness (ln)” value (30 °C) was -3.95 ± 0.19 and the “self-splicing fitness (ln)” value (37 °C) is -2.97 ± 0.19.

As for CCUGAGCAAUAUUACGGUGA, the “self-splicing fitness (ln)” value is, setting by setting: (30 °C) -4 ± 0.3; (37 °C) -2.64 ± 0.26.

On to CCUGAGCAAUAUUACGGUUA, for which the “self-splicing fitness (ln)” value by setting is: (30 °C) -2.13 ± 0.22; (37 °C) -2.96 ± 0.22.

In the case of CCUGAGCAAUAUUACGUCAU, the “self-splicing fitness (ln)” value reads like this: (30 °C) -3.5 ± 0.15; (37 °C) -2.68 ± 0.18.

Consider CCUGAGCAAUAUUACGUGAC, for which the “self-splicing fitness (ln)” value is -3.82 ± 0.25 (30 °C) and -2.17 ± 0.22 (37 °C).

Take CCUGAGCAAUAUUACGUGGU: the “self-splicing fitness (ln)” value is, setting by setting: (30 °C) -3.09 ± 0.16; (37 °C) -2.94 ± 0.21.

With CCUGAGCAAUAUUACGUGUA, the “self-splicing fitness (ln)” value runs as follows: (30 °C) -3.53 ± 0.2; (37 °C) -2.16 ± 0.2.

Turning to CCUGAGCAAUAUUACGUUGU, the “self-splicing fitness (ln)” value reads like this: (30 °C) -3.57 ± 0.2; (37 °C) -2.73 ± 0.23.

As for CCUGAGCAAUAUUACGUUUG, the “self-splicing fitness (ln)” value reads like this: (30 °C) -3.6 ± 0.22; (37 °C) -2.21 ± 0.18.

Consider CCUGAGCAAUAUUACGUUUU, for which the “self-splicing fitness (ln)” value (30 °C) is -3.74 ± 0.23 and the “self-splicing fitness (ln)” value (37 °C) was -2.81 ± 0.25.

In the case of CCUUAGCAAUAUUACGACUC, the “self-splicing fitness (ln)” value is, setting by setting: (30 °C) -3.05 ± 0.15; (37 °C) -2.49 ± 0.2.

As to CCUUAGCAAUAUUACGAGAA, the “self-splicing fitness (ln)” value reads like this: (30 °C) -2.19 ± 0.38; (37 °C) -2.79 ± 0.47.

Take CCUUAGCAAUAUUACGAGCU: the “self-splicing fitness (ln)” value was -4 ± 0.33 (30 °C) and -2.74 ± 0.29 (37 °C).

On to CCUUAGCAAUAUUACGAUAA, for which the “self-splicing fitness (ln)” value was -3.53 ± 0.25 (30 °C) and -2.88 ± 0.27 (37 °C).

As for CCUUAGCAAUAUUACGAUCU, the “self-splicing fitness (ln)” value reads like this: (30 °C) -4.14 ± 0.39; (37 °C) -2.88 ± 0.2.

With CCUUAGCAAUAUUACGAUGU, the “self-splicing fitness (ln)” value (30 °C) was -2.14 ± 0.13 and the “self-splicing fitness (ln)” value (37 °C) was -1.49 ± 0.16.

Turning to CCUUAGCAAUAUUACGAUUA, the “self-splicing fitness (ln)” value by setting is: (30 °C) -2.28 ± 0.28; (37 °C) -2.61 ± 0.32.

CCUUAGCAAUAUUACGCAAG: the “self-splicing fitness (ln)” value (37 °C) was -3.09 ± 0.33.

Regarding CCUUAGCAAUAUUACGCAAU, the “self-splicing fitness (ln)” value runs as follows: (30 °C) -3.51 ± 0.23; (37 °C) -1.47 ± 0.23.

Turning to CCUUAGCAAUAUUACGCAUC, for the setting “37 °C”, the “self-splicing fitness (ln)” value is -2.77 ± 0.48.

As for CCUUAGCAAUAUUACGCCAU, the “self-splicing fitness (ln)” value (30 °C) is -2.87 ± 0.48 and the “self-splicing fitness (ln)” value (37 °C) was -1.57 ± 0.29.

As for CCUUAGCAAUAUUACGCCCU, for the setting “30 °C”, the “self-splicing fitness (ln)” value was -1.89 ± 0.48.

Turning to CCUUAGCAAUAUUACGCGAC, the “self-splicing fitness (ln)” value was -3.16 ± 0.26 (30 °C) and -2.12 ± 0.28 (37 °C).

Regarding CCUUAGCAAUAUUACGCGAU, where the note is “37 °C”, the “self-splicing fitness (ln)” value is -3.16 ± 0.22.

CCUUAGCAAUAUUACGCGUG: the “self-splicing fitness (ln)” value is -2.33 ± 0.12 (30 °C) and -2.61 ± 0.12 (37 °C).

In the case of CCUUAGCAAUAUUACGCUUA, the “self-splicing fitness (ln)” value by setting is: (30 °C) -3.61 ± 0.34; (37 °C) -2.66 ± 0.33.

Regarding CCUUAGCAAUAUUACGGACG, the “self-splicing fitness (ln)” value (30 °C) was -1 ± 0.13 and the “self-splicing fitness (ln)” value (37 °C) was -0.586 ± 0.17.

Consider CCUUAGCAAUAUUACGGCAA, for which the “self-splicing fitness (ln)” value by setting is: (30 °C) -3.57 ± 0.33; (37 °C) -2.54 ± 0.24.

With CCUUAGCAAUAUUACGGCGC, the “self-splicing fitness (ln)” value (30 °C) was -2.98 ± 0.27.

For the sequence CCUUAGCAAUAUUACGGGCC, the “self-splicing fitness (ln)” value was -2.94 ± 0.31 (30 °C) and -2.54 ± 0.35 (37 °C).

As to CCUUAGCAAUAUUACGGUCG, the “self-splicing fitness (ln)” value is, setting by setting: (30 °C) -0.919 ± 0.092; (37 °C) -0.755 ± 0.097.

In the case of CCUUAGCAAUAUUACGGUUA, the “self-splicing fitness (ln)” value was -3.48 ± 0.24 (30 °C) and -2.24 ± 0.16 (37 °C).

Regarding CCUUAGCAAUAUUACGUACC, under “30 °C”, the “self-splicing fitness (ln)” value is -3.04 ± 0.45.

For the sequence CCUUAGCAAUAUUACGUCGC, the “self-splicing fitness (ln)” value is -3.07 ± 0.4 (30 °C) and -2.66 ± 0.38 (37 °C).

In the case of CCUUAGCAAUAUUACGUCGG, the “self-splicing fitness (ln)” value by setting is: (30 °C) -3.99 ± 0.26; (37 °C) -1.37 ± 0.15.

In the case of CCUUAGCAAUAUUACGUGCA, the “self-splicing fitness (ln)” value is -3.43 ± 0.23 (30 °C) and -3.76 ± 0.28 (37 °C).

With CCUUAGCAAUAUUACGUUAG, the “self-splicing fitness (ln)” value (30 °C) is -4.07 ± 0.21 and the “self-splicing fitness (ln)” value (37 °C) was -2.67 ± 0.26.

Take CCUUAGCAAUAUUACGUUGU: the “self-splicing fitness (ln)” value is -3.12 ± 0.17 (30 °C) and -3.27 ± 0.24 (37 °C).

Consider CCUUAGCAAUAUUACGUUUG, for which the “self-splicing fitness (ln)” value runs as follows: (30 °C) -3.99 ± 0.24; (37 °C) -2.47 ± 0.18.

Turning to CGAAAGCAAUAUUACGAACC, the “self-splicing fitness (ln)” value (30 °C) is -0.666 ± 0.14 and the “self-splicing fitness (ln)” value (37 °C) was -0.796 ± 0.16.

Turning to CGAAAGCAAUAUUACGACUU, the “self-splicing fitness (ln)” value is, setting by setting: (30 °C) -1.64 ± 0.12; (37 °C) -0.99 ± 0.14.

Consider CGAAAGCAAUAUUACGAGAG, for which the “self-splicing fitness (ln)” value (30 °C) was -3.12 ± 0.17 and the “self-splicing fitness (ln)” value (37 °C) is -2.58 ± 0.18.

Take CGAAAGCAAUAUUACGAUCU: the “self-splicing fitness (ln)” value was -0.599 ± 0.076 (30 °C) and 0.313 ± 0.11 (37 °C).

Take CGAAAGCAAUAUUACGAUUC: the “self-splicing fitness (ln)” value (37 °C) is -2.13 ± 0.26.

For CGAAAGCAAUAUUACGCAGG, the “self-splicing fitness (ln)” value reads like this: (30 °C) -2.16 ± 0.091; (37 °C) -1.4 ± 0.093.

For CGAAAGCAAUAUUACGCGGC, the “self-splicing fitness (ln)” value runs as follows: (30 °C) -2.81 ± 0.3; (37 °C) -2.38 ± 0.31.
